According to patent EP4491631A1 (Anaveon AG, dated 2025):

T1: IL-2R CD122-CD132 on Jurkat-PD1+ CD122+ cells (UniProt P14784 27-551; P31785 23-369)
T1 sequence (looked up) 1: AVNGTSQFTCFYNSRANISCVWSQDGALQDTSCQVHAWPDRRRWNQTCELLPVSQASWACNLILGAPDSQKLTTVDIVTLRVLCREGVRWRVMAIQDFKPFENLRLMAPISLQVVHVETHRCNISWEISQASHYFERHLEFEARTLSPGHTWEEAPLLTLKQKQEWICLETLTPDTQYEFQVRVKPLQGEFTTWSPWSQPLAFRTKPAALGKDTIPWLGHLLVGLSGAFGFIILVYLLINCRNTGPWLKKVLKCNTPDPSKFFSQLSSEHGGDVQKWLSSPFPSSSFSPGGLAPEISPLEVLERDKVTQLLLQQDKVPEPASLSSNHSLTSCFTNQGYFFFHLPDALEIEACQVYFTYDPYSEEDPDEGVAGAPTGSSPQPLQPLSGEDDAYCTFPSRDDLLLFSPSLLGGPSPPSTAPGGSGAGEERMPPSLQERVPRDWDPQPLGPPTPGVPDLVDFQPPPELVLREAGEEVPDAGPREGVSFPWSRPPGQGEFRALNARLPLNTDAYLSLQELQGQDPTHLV
T1 sequence (looked up) 2: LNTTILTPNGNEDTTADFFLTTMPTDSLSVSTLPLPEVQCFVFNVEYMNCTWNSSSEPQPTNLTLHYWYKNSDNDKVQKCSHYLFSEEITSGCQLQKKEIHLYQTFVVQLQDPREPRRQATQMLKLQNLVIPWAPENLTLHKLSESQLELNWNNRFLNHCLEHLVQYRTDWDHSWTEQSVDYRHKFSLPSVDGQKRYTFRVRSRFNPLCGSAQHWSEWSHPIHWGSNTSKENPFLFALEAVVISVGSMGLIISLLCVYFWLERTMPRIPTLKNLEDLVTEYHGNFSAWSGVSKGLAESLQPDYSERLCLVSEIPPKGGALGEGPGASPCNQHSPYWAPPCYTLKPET


What was measured:
[1] = target: T1, IL-2R CD122-CD132 on Jurkat-PD1+ CD122+ …; experiment: cell-based or functional assay
[2] = target: T2, cynoPD-1 His (AcroBiosystems PD1-C5223) (cynomolgus monkey, UniProt B0LAJ3 25-170); experiment: SPR, antibody captured
T2 construct: also called cPD-1
T2 sequence (B0LAJ3 entry or part of it limits assumed, form in doubt): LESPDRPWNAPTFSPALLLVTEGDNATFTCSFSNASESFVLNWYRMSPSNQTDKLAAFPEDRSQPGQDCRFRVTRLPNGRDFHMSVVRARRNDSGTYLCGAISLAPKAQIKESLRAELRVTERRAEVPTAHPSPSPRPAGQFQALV

Binder | EC50 value for pSTAT5 induction [1] | koff [2]
LTJ498 (bispecific antibody, human IgG1, lambda, L234A L235A) chain 1: EVQLLESGGGLVQPGGSLRLSCAASGFTFSINAMTWVRQAPGKGLEWVSTISGSGFSTYYADSLKGRFTISRDNSKNTLYLQMNSLRAEDTAVYYCAKEVYGDYWGQGTLVTVSSASTKGPSVFPLAPSSKSTSGGTAALGCLVKDYFPEPVTVSWNSGALTSGVHTFPAVLQSSGLYSLSSVVTVPSSSLGTQTYICNVNHKPSNTKVDKRVEPKSCDKTHTCPPCPAPEAAGGPSVFLFPPKPKDTLMISRTPEVTCVVVDVSHEDPEVKFNWYVDGVEVHNAKTKPREEQYNSTYRVVSVLTVLHQDWLNGKEYKCKVSNKALAAPIEKTISKAKGQPREPQVYTLPPSREEMTKNQVSLTCLVKGFYPSDIAVEWESNGQPENNYKTTPPVLDSDGSFFLTSKLTVDKSRWQQGNVFSCSVMHEALHNHYTQKSLSLSPGK chain 2: not shown chain 3: AIRLTQSPSSFSASTGDRVTITCKASQSVDYGGGNFHLRPRDLISNINVIVLELKGSETTFMCEYADETATIVEFLNRWITFSQSIISTLTPTSSSTKKTQLQLEHLLLDLQMILNGINNYKNPKLTRMLTFKFYMPKKATELKHLQCLEEELKPLEEVLNLAQSKGGGGDSYMNWYQQKPGKAPKLLIYAASNLESGVPSRFSGSGSGTDFTLTISSLQSEDFATYYCQQSNEDPYTFGGGTKVEIKGGGGSGGGGSGGGGSEVQLVQSGAEVKKPGESLKISCKGSGYAFTNYLIEWVRQMPGKGLEWMGVINPGSGGTNYNEKFKGQVTISADKSISTAYLQWSSLKASDTAMYYCARWRGEGYYAYFDVWGQGTTVTVSSGGGGSGGGGSEVQLLESGGGLVQPGGSLRLSCAASGFTFSINAMTWVRQAPGKGLEWVSTISGSGFSTYYADSLKGRFTISRDNSKNTLYLQMNSLRAEDTAVYYCAKEVYGDYWGQGTLVTVSSASTKGPSVFPLAPSSKSTSGGTAALGCLVKDYFPEPVTVSWNSGALTSGVHTFPAVLQSSGLYSLSSVVTVPSSSLGTQTYICNVNHKPSNTKVDKRVEPKSCDKTHTCPPCPAPEAAGGPSVFLFPPKPKDTLMISRTPEVTCVVVDVSHEDPEVKFNWYVDGVEVHNAKTKPREEQYNSTYRVVSVLTVLHQDWLNGKEYKCKVSNKALAAPIEKTISKAKGQPREPQVYTLPPSREEMTKNQVSLYCLVKGFYPSDIAVEWESNGQPENNYKTTPPVLDSDGSFFLYSKLTVDKSRWQQGNVFSCSVMHEALHNHYTQKSLSLSPGK | 0.24 nM | 
z5-XVT458 (antibody, human IgG1, kappa, V domains shown, full hIgG1 format) VH: QVQLVQSGAEVKKPGASVKVSCKASGYTFTNFYIHWVRQAPGQGLEWMGSIYPNYGDTAYNQKFKDRATMTTDKSTSTAYMELRSLRSDDTAVYYCARGYSYAMDYWGQGTTVTVSS VL: DIQMTQSPSSVSASVGDRVTITCSASQGISGDLNWYQQKPGKAPKLLIYHTSSLHSGVPSRFSGSGSGTDFTLTISSLQPEDFATYYCQYYSKDLLTFGGGTKLEIKR |  | 0.00338 s⁻¹

The remaining lines, values ahead:

EC50 value for pSTAT5 induction [1] | koff [2] | Binder
0.22 nM |  | GQM289 (bispecific antibody, human IgG1, kappa, lambda, L234A L235A) chain 1: EVQLLESGGGLVQPGGSLRLSCAASGFTFSINAMTWVRQAPGKGLEWVSTISGSGFSTYYADSLKGRFTISRDNSKNTLYLQMNSLRAEDTAVYYCAKEVYGDYWGQGTLVTVSSASTKGPSVFPLAPSSKSTSGGTAALGCLVKDYFPEPVTVSWNSGALTSGVHTFPAVLQSSGLYSLSSVVTVPSSSLGTQTYICNVNHKPSNTKVDKRVEPKSCDKTHTCPPCPAPEAAGGPSVFLFPPKPKDTLMISRTPEVTCVVVDVSHEDPEVKFNWYVDGVEVHNAKTKPREEQYNSTYRVVSVLTVLHQDWLNGKEYKCKVSNKALAAPIEKTISKAKGQPREPQVYTLPPSREEMTKNQVSLTCLVKGFYPSDIAVEWESNGQPENNYKTTPPVLDSDGSFFLTSKLTVDKSRWQQGNVFSCSVMHEALHNHYTQKSLSLSPGK chain 2: not shown chain 3: EVQLVQSGAEVKKPGESLKISCKGSGYAFTNYLIEWVRQMPGKGLEWMGVINPGSGGTNYNEKFKGQVTISADKSISTAYLQWSSLKASDTAMYYCARWRGEGYYAYFDVWGQGTTVTVSSASTKGPSVFPLAPSSKSTSGGTAALGCLVKDYFPEPVTVSWNSGALTSGVHTFPAVLQSSGLYSLSSVVTVPSSSLGTQTYICNVNHKPSNTKVDKRVEPKSCDKTHTCPPCPAPEAAGGPSVFLFPPKPKDTLMISRTPEVTCVVVDVSHEDPEVKFNWYVDGVEVHNAKTKPREEQYNSTYRVVSVLTVLHQDWLNGKEYKCKVSNKALAAPIEKTISKAKGQPREPQVYTLPPSREEMTKNQVSLYCLVKGFYPSDIAVEWESNGQPENNYKTTPPVLDSDGSFFLYSKLTVDKSRWQQGNVFSCSVMHEALHNHYTQKSLSLSPGK chain 4: not shown
0.27 nM |  | XWY176 (bispecific antibody, human IgG1, kappa, lambda, L234A L235A) chain 1: EVQLLESGGGLVQPGGSLRLSCAASGFTFSINAMTWVRQAPGKGLEWVSTISGSGFSTYYADSLKGRFTISRDNSKNTLYLQMNSLRAEDTAVYYCAKEVYGDYWGQGTLVTVSSASTKGPSVFPLAPSSKSTSGGTAALGCLVKDYFPEPVTVSWNSGALTSGVHTFPAVLQSSGLYSLSSVVTVPSSSLGTQTYICNVNHKPSNTKVDKRVEPKSCDKTHTCPPCPAPEAAGGPSVFLFPPKPKDTLMISRTPEVTCVVVDVSHEDPEVKFNWYVDGVEVHNAKTKPREEQYNSTYRVVSVLTVLHQDWLNGKEYKCKVSNKALAAPIEKTISKAKGQPREPQVYTLPPSREEMTKNQVSLTCLVKGFYPSDIAVEWESNGQPENNYKTTPPVLDSDGSFFLTSKLTVDKSRWQQGNVFSCSVMHEALHNHYTQKSLSLSPGK chain 2: not shown chain 3: EVQLVQSGAEVKKPGESLKISCKGSGYAFTNYLIEWVRQMPGKGLEWMGVINPGSGGTNYNEKFKGQVTISADKSISTAYLQWSSLKASDTAMYYCARWRGEGYYAYFDVWGQGTTVTVSSASTKGPSVFPLAPSSKSTSGGTAALGCLVKDYFPEPVTVSWNSGALTSGVHTFPAVLQSSGLYSLSSVVTVPSSSLGTQTYICNVNHKPSNTKVDKRVEPKSCDKTHTCPPCPAPEAAGGPSVFLFPPKPKDTLMISRTPEVTCVVVDVSHEDPEVKFNWYVDGVEVHNAKTKPREEQYNSTYRVVSVLTVLHQDWLNGKEYKCKVSNKALAAPIEKTISKAKGQPREPQVYTLPPSREEMTKNQVSLYCLVKGFYPSDIAVEWESNGQPENNYKTTPPVLDSDGSFFLYSKLTVDKSRWQQGNVFSCSVMHEALHNHYTQKSLSLSPGK chain 4: not shown
